Reference: PMC8369199
Values belong to the substance of their own block, whether it stands above or below them.

How the values were obtained:
[1] = target: MMP-9 cleaved TRZ-Fc4 (human); experiment: BLI; antibody variant on anti-human Fab-CH1 (Fab2G) sensors; FcγRI 6.25, 12.5, 25, 50 nM, then dissociation in kinetics buffer; 1:1 Langmuir model
trastuzumab (human) = experiment: as above
[2] = target: human complement C1q (human) (UniProt P02745); experiment: BLI
[3] = target: FcγRIIIa V158 (high-affinity variant of FcγRIIIa) on engineered ADCC reporter effector cells

Chain of His-tagged human Fc gamma RI (CD64) (P12314 16-292): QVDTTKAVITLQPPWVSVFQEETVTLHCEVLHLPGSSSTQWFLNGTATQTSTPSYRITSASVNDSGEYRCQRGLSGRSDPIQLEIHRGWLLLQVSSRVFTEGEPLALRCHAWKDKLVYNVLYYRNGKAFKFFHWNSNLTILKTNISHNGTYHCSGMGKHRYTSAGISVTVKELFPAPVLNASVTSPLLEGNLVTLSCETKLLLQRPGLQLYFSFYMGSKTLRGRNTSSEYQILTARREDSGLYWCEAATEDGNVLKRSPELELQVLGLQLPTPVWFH
Chain of human complement C1q (human) (P02745 23-245, chain 1 of 3): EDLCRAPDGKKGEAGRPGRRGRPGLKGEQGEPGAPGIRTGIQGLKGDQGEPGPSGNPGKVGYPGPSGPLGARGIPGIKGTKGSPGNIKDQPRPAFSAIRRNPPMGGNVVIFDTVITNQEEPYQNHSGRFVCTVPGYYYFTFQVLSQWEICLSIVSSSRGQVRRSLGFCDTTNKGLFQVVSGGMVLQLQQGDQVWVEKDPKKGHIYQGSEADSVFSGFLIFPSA
Chain of human complement C1q (human) (P02746 28-253, chain 2 of 3, further chain): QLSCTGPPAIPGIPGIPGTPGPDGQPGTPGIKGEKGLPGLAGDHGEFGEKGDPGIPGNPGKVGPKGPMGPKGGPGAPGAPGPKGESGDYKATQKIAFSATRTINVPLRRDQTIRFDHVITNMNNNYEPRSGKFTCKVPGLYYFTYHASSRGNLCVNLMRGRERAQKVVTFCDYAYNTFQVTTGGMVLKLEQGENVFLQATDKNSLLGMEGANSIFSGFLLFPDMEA
Chain of human complement C1q (human) (P02747 29-245, chain 3 of 3, further chain): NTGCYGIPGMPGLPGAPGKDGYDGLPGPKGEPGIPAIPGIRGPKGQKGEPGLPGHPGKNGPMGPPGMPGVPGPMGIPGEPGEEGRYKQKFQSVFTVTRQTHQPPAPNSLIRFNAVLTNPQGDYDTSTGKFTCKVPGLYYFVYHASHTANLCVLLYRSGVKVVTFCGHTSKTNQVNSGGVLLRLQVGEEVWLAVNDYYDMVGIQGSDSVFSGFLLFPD

- Kd [1]: 1.6 nM
- Kd (trastuzumab (human)): 1.3 nM
Substance: His-tagged human Fc gamma RI (CD64) (from UniProt P12314 16-292) (receptor)

- Kd [2]: 209 nM
Substance: trastuzumab

- ADCC reporter assay, fold induction, SK-BR-3 target cells, with MMP-2/MMP-9 inhibitor, antibody 10 fM to 100 nM; highest induction, reached at 1 nM (fold induction) [3]: 57.6
- EC50 of ADCC reporter induction, SK-BR-3 target cells [3]: 0.039 nM
Substance: trastuzumab (antibody)
